Assay results: paper PMC8062929, “ZmOrphan94 Transcription Factor Downregulates ZmPEPC1 Gene Expression in Maize Bundle Sheath Cells”

T1: Trx::ZmOrphan94 (Zea mays B73, UniProt C0P6E9 1-264)
T1 sequence: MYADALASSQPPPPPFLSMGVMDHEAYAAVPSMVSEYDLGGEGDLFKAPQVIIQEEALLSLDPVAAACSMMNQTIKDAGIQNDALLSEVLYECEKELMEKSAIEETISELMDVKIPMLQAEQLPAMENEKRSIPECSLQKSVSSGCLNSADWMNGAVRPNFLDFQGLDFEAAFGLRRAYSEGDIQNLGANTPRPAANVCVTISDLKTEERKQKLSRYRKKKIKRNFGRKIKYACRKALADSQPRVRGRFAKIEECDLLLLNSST


Tests used:
Trx::ZmOrphan94 [1] = biological target: T1, Trx::ZmOrphan94; experiment: EMSA; out-competed by unlabelled WT probe (400x); EMSA: 1 ug protein, 50 fmol probe in 10 ul; 10 mM HEPES pH 7.9, 40 mM KCl, 1 mM EDTA, 1 mM DTT, 50 ng herring sperm DNA, 15 ug BSA, 10% glycerol, 1 h on ice; 5% native PAGE; conditions: protein: recombinant; tags: N-terminal Trx (pET32a); label: 32P; 5' overhang 4 nt on each strand as annealed
Trx::ZmOrphan94 [2] = biological target: T1, Trx::ZmOrphan94; experiment: EMSA; strongest band; out-competed by unlabelled WT probe (400x); EMSA: 1 ug protein, 50 fmol probe in 10 ul; 10 mM HEPES pH 7.9, 40 mM KCl, 1 mM EDTA, 1 mM DTT, 50 ng herring sperm DNA, 15 ug BSA, 10% glycerol, 1 h on ice; 5% native PAGE; conditions: protein: recombinant; tags: N-terminal Trx (pET32a); label: 32P; 5' overhang 4 nt on each strand as annealed

| Binder | binding result (Trx::ZmOrphan94 [1]) | binding result (Trx::ZmOrphan94 [2]) |
| --- | --- | --- |
| 5U-ZmPEPC1-1 (dsDNA) DNA 1: ACGTGGCGGTTACCGCCGATCACATGCCCAAGGCCG DNA 2: ACATCGGCCTTGGGCATGTGATCGGCGGTAACCGCC | binds |  |
| 5U-ZmPEPC1-2 (dsDNA) DNA 1: ACGTGCGAGGGCCGCCCGTTCCCGTGCACAGCCACG DNA 2: ATCACGTGGCTGTGCACGGGAACGGGCGGCCCTCGC | binds |  |
| 5U-ZmPEPC1-3 (dsDNA) DNA 1: ACGTGTCCCGTGCACAGCCACACACACACCCGCCCG DNA 2: ATCACGGGCGGGTGTGTGTGTGGCTGTGCACGGGAC |  | binds |
